This note sets out measurements from patent US9944700B2, “Notch2 binding molecules for treating respiratory diseases” (NOVARTIS AG, priority 2013, dated 2018).

The subject of the series is bronchospheres (human bronchial epithelial cells). In words: Bronchosphere assay of secreted recombinant human proteins, qPCR of cell type markers and immunostaining. The series is classed as cell-based. Conditions: for change in expression of at least one cell-type marker, initial screen: 55 proteins tested at 3.3, 10 and 30 ng/mL; for expression of both of the ciliated cell markers: markers FOXJ1, DNAI2; for expression of at least two of the goblet cell markers: markers MUC5AC, MUC5B, FOXA3; for change in expression of at least one of the cell-type markers, on validation: expanded concentration range. Here is the method: Human bronchial epithelial (HBE) cells and culture media were obtained from Lonza. Air-liquid interface cultures using passage 2 (P2) cells were performed as previously described (Danahay, H. et al., American journal of physiology. Lung cellular and molecular physiology 282, L226-236 (2002)). For three-dimensional culturing of HBE cells, P1 cells were trypsinized and resuspended (30,000 cells/ml) in HBE differentiation media containing 5% growth factor-reduced Matrigel (BD Biosciences). 20 μl of suspension was plated in each well of a 384-well plate (Greiner) pre-coated with 10 μl of a 25% solution of Matrigel (BD Biosciences) in HBE differentiation media. Wells were fed or treated at day 2 and day 8 of culture by adding 30 μl of differentiation media containing the appropriate treatment. Three-dimensional cultures were analyzed at the time points indicated.
Immunofluorescence of HBEC bronchospheres was performed as described previously for MCF10A cysts (Debnath, J. et al., Methods 30, 256-268 (2003) with the following modifications. After incubation with fluorescence-conjugated secondary antibodies, DNA was stained with a 1:1 mix of PBS and ProLong gold antifade containing DAPI. Confocal microscopy was performed at room temperature on a microscope (Zeiss LSM510 Meta) using an EC Plan-Neofluar 10×/0.30 dry objective (Zeiss), an EC Plan-Neofluor 20×/0.5 dry objective (Zeiss), a C-Apochromat 40×/1.2 W corr (Zeiss), or a C-Apochromat 63×/1.2 W Corr objective (Zeiss). Images were collected with Zen confocal software (Zeiss). Scale bars were added, and images were processed using Zen (Zeiss) and Photoshop (Adobe). Air-liquid interface (ALI) cultures were processed for immunofluorescence analysis after 14 days of culture at ALI by rinsing the apical surface of each filter with PBS, and then fixing in 4% paraformaldehyde for 4 hours. Filters were washed with IF buffer (130 mM NaCl, 7 mM Na2HPO4, 3.5 mM NaH2PO4, 7.7 mM NaN3, 0.1% bovine serum albumin, 0.2% Triton X-100, 0.05% Tween-20), blocked with IF wash containing 10% goat serum, and stained with primary antibody in IF wash containing 10% goat serum overnight at 4° C. Secondary antibodies were used at a 1:200 dilution in IF buffer containing 10% goat serum. To quantify the total staining area of ALI cultures, 10×13 images were collected with a plan Neofluar 10×0.3 NA Ph1 objective (EC; Carl Zeiss, Inc.) on a microscope (Axiovert 200; Carl Zeiss, Inc.) equipped with a motorized stage and a camera (Orca-ER-1394; Hamamatsu Photonics) controlled by Axiovision software (Carl Zeiss, Inc.) and used to generate a single composite image using the MOSAIX function in Zeiss Axiovision. Quantification of the total staining area was performed with ImageJ. Two to three regions of each ALI culture were punched out with a 4 mm biopsy punch (Miltex, Inc.) and mounted in ProLong gold antifade containing DAPI for imaging by confocal microscopy on a microscope (Axiovert 200; Carl Zeiss, Inc.) equipped with a motorized stage, a Yokogawa CSU-X1 spinning disc head, and an EMCCD camera (Evolve 512, Photometrics), with a Plan-Apochromat 100×/1.4 Oil DIC objective (Zeiss). Cells positive for MUC5AC, MUC5B, or cilia (acetylated α-Tubulin) staining were counted manually. For time-lapse video microscopy, HBECs were imaged at the indicated times during bronchosphere development at 37° C. with a plan Neofluar 10×0.3 NA Ph1 objective (EC; Carl Zeiss, Inc.). Images were taken every 5 min for the indicated time period. Annotations (time stamp and scale bar) were added and videos were assembled using Axiovision software.
RNA was isolated from 3D bronchosphere cultures with Trizol (Invitrogen), using manufacturer's specifications. To isolate RNA from mouse tissue, approximately 20 mg of tissue was placed in a 1.5 ml eppendorf tube with 1 ml of Buffer RLT Plus (Qiagen). A 5 mm stainless steel bead (Qiagen) was added to the tube, and the tissue was sheared using a Tissue Lyser II (Qiagen).
In general terms: In qPCR the cycle at which signal appears reflects the starting amount.

Setting [1] is: IL-13 treated bronchospheres, immunostaining, FIG. 2c.
Setting [2] is: IL-13 treatment between days 2 and 14 after seeding, qPCR, FIG. 2a.

A value given as a limit tells only on which side of the number the result lay.

For “IL1-β: secreted, recombinant human protein profiled in the bronchosphere assay”, the “change in expression of at least one cell-type marker, initial screen” value (from here on “change in expression … initial screen”) is “concentration-dependent change”; the “expression of both of the ciliated cell markers” value is “attenuated”; the “expression of at least two of the goblet cell markers” value is listed as “enhanced”; the “change in expression of at least one of the cell-type markers, on validation” value (“change in expression … on validation” for short) is listed as “robust change”.
As to “IL-13: secreted, recombinant human protein (inflammatory cytokine) profiled in the bronchosphere assay”, the “change in expression … initial screen” value is listed as “concentration-dependent change”; the “expression of both of the ciliated cell markers” value was “attenuated”; the “expression of at least two of the goblet cell markers” value is “enhanced”; the “change in expression … on validation” value is “robust change”. Under setting [1], the “acetylated α-tubulin positive structures” value was “lack” and the “secreted mucins in the central lumen” value is “accumulation”. In addition, under setting [2], the “ciliated cell marker expression” value is on record as “declined” and the “expression of markers of goblet cells” value is reported as “clear enhancement”. In addition, the “concentrations toxic and disrupting bronchosphere formation” value (data not shown) is on record as greater than 3 ng/mL.
In the case of “IFN-γ: secreted, recombinant human protein profiled in the bronchosphere assay”, the “change in expression … initial screen” value is given as “concentration-dependent change”; the “expression of both of the ciliated cell markers” value was “attenuated”; the “expression of at least two of the goblet cell markers” value is given as “enhanced”; the “change in expression … on validation” value is “robust change”.

B1: FGF-7: secreted, recombinant human protein profiled in the bronchosphere assay (protein, UniProt P21781 32-194, looked up)
Fibroblast growth factor 7: CNDMTPEQMATNVNCSSPERHTRSYDYMEGGDIRVRRLFCRTQWYLRIDKRGKVKGTQEMKNNYNIMEIRTVAVGIVAIKGVESEFYLAMNKEGKLYAKKECNEDCNFKELILENHYNTYASAKWTHNGGEMFVALNQKGIPVRGKKTKKEQKTAHFLPMAIT
For the molecule B1, the “change in expression … initial screen” value was “concentration-dependent change”. In addition, the “expression of MUC5B” value (bronchosphere assay) is listed as “enhanced”. The “effect on any of the other markers” value (markers other than MUC5B) is reported as “without affecting”.

B2: IL-28A: secreted, recombinant human protein profiled in the bronchosphere assay (protein, UniProt Q8IZJ0 26-200, looked up)
Interferon lambda-2: VPVARLHGALPDARGCHIAQFKSLSPQELQAFKRAKDALEESLLLKDCRCHSRLFPRTWDLRQLQVRERPMALEAELALTLKVLEATADTDPALVDVLDQPLHTLHHILSQFRACIQPQPTAGPRTRGRLHHWLYRLQEAPKKESPGCLEASVTFNLFRLLTRDLNCVASGDLCV
B2: the “change in expression … initial screen” value is “concentration-dependent change”; the “expression of both of the ciliated cell markers” value was “attenuated”; the “expression of at least two of the goblet cell markers” value is reported as “enhanced”; the “change in expression … on validation” value was “robust change”.

B3: IL-28B: secreted, recombinant human protein profiled in the bronchosphere assay (protein, UniProt Q8IZI9 22-196, looked up)
Interferon lambda-3: VPVARLRGALPDARGCHIAQFKSLSPQELQAFKRAKDALEESLLLKDCKCRSRLFPRTWDLRQLQVRERPVALEAELALTLKVLEATADTDPALGDVLDQPLHTLHHILSQLRACIQPQPTAGPRTRGRLHHWLHRLQEAPKKESPGCLEASVTFNLFRLLTRDLNCVASGDLCV
For the molecule B3, the “change in expression … initial screen” value is “concentration-dependent change”; the “expression of both of the ciliated cell markers” value is listed as “attenuated”; the “expression of at least two of the goblet cell markers” value is reported as “enhanced”; the “change in expression … on validation” value is “robust change”.

B4: IL-1a: secreted, recombinant human protein profiled in the bronchosphere assay (protein, UniProt P01583 113-271, looked up)
Interleukin-1 alpha: SAPFSFLSNVKYNFMRIIKYEFILNDALNQSIIRANDQYLTAAALHNLDEAVKFDMGAYKSSKDDAKITVILRISKTQLYVTAQDEDQPVLLKEMPEIPKTITGSETNLLFFWETHGTKNYFTSVAHPNLFIATKQDYWVCLAGGPPSITDFQILENQA
As to B4, the “change in expression … initial screen” value is “concentration-dependent change”; the “expression of both of the ciliated cell markers” value was “attenuated”; the “expression of at least two of the goblet cell markers” value was “enhanced”; the “change in expression … on validation” value is “robust change”.

B5: IL-29: secreted, recombinant human protein profiled in the bronchosphere assay (protein, UniProt Q8IU54 20-200, looked up)
Interferon lambda-1: GPVPTSKPTTTGKGCHIGRFKSLSPQELASFKKARDALEESLKLKNWSCSSPVFPGNWDLRLLQVRERPVALEAELALTLKVLEAAAGPALEDVLDQPLHTLHHILSQLQACIQPQPTAGPRPRGRLHHWLHRLQEAPKKESAGCLEASVTFNLFRLLTRDLKYVADGNLCLRTSTHPEST
In the case of B5, the “change in expression … initial screen” value is recorded as “concentration-dependent change”; the “expression of both of the ciliated cell markers” value was “attenuated”; the “expression of at least two of the goblet cell markers” value is on record as “enhanced”; the “change in expression … on validation” value is “robust change”.
